Measured values as given in PMC8113883, “Wild-type sTREM2 blocks Aβ aggregation and neurotoxicity, but the Alzheimer's R47H mutant increases Aβ aggregation” (The Journal of Biological Chemistry, 2021).

Target: T1, HiLyte Fluor 488-labeled Aβ42 oligomers (human, UniProt P05067 672-713, HiLyte Fluor 488 label (position not given))
T1 construct: amyloid beta peptide 1-42 (Aβ42), human; cut product of the amyloid precursor protein; Oligomeric species of the 6 h aggregation mixture, told apart from monomers by photobleaching; also called oligomeric Aβ; Aβ oligomers; source: bought: AnaSpec; aggregated at 0.5 μM in PBS pH 7.4 for 6 h in a shaking incubator
Assay: single-molecule TIRF two-color coincidence detection; HiLyte Fluor 488 Aβ aggregated 6 h (0.5 μM, PBS pH 7.4), dye-labeled sTREM2 added and imaged; monomers and oligomers told apart by photobleaching; chance coincidence subtracted
Settings: both partners purified

B1: dye-labeled wild-type sTREM2 (TREM2 ectodomain) for TIRF imaging (domain or fragment, human, UniProt Q9NZC2 19-143, looked up)
chain: HNTTVFQGVAGQSLQVSCPYDSMKHWGRRKAWCRQLGEKGPCQRVVSTHNLWLLSFLRRWNGSTAITDDTLGGTLTITLRNLQPHDAGLYQCQSLHGSEADTLRKVLVEVLADPLDHRDAGDLWF
modifications: TAMRA dye (results) or AF647 (methods), position not stated
notes: TREM2, human, residues 19-143 (soluble ectodomain); also called TAMRA-dye labeled sTREM2; AF647-TREM2; source: Freestyle 293-F, transfected (pHLSec), purified from conditioned medium (IMAC, gel filtration); dye-labeled
B1: binds.
